Data as given in the DeepSol protein solubility set.

Experiment: soluble on expression in E. coli; label from the status in PepcDB or PDB records

| Sequence | soluble on expression in E. coli |
| --- | --- |
| MGHHHHHHSHMRKNESYLNQPAPPIPIPTLSLMGGCREHFENHWKGRARWLMPVIPALWEAKAGRSPEVRSSKPAWPTWRNPIFTKNTKISQVLELFLNYQSLICALEKQKRQKGSLAIFCWSFQGGCVSKRPDVPSLKSQKPKRKRITGRKRLSKGSWSLLFSNLGRF | soluble |
| GPGSMLRRTDRCGQRKVEKLLVANRGEIACRVFRTCREMHIRTVALFCEAERNAKHVVEADEAVCIGPPPAVNSYLRGDHIISVAKQLNVDAIHPGYGFLSENADFAEAVTRSGIEFIGPPASAISLMGSKSESKRIMEAAGVPVVPGYYGENQNVSFLAEEANRVGFPILIKAVSGGGGKGMKIVERPEDFAFMLESAKREAANFFKDDRVILERYVKRPRHIECQIFFDKHGRGVFFFERDCSVQRRYQKVLEEAPAPHLSMEMRQRIGEVALQAAKAVGYVGAGTVEFIFDTSTGDFYFMEMNTRLQVEHPVTEEVCRIKGAPLDLVKLQIKTAMGKPLTFSQEDVALVGSCIEARVYAESPERGFLPESGPLTFIREPFQGVRGPTRTRLDTGFCEGDNVLIHYDPMLAKVISWGRNREDALKGLRQALGEYKVAGINTNIEFLKRCCEAPEFARGGVTTNFISEHEKQLLNAPAVTPKVAAMAATAWLLNRCDNWRGAFRLNGDTSATVHFYIDNRPVEVRLHTEGANYHKIFFSVWDHEGSFAVGSGPVTSKHRDQRSIVNGFTFLFENGMRHTVLAVATEGDVTIIGSFGLHQIRLLPLTDGFGDASMAGGTSAKIVSPMPGKVSKFLVNSGDFVEKGQALMIVEAMKMEHPVKALQDGQVSFLVKEGEVVGSDHVLATVVQKE | not soluble |
| MIGKEEIHRIRELIGAKEGPVLSLYVDVNPAKPENAGRAYALRAKDAIKALEVPGDLSERVLEVLQNQVLEARTAVFFAGEDLFEVLPLQVELPLVNSVKTAFLDEKAGRYLVDGVLAHWGEPFLLPLVYALDEYERYGIVYVDRERWRVFEVFLGEIEEVHDAFLALDTEAWRRLSLDAPGRRFNLGGIARGGAGQDLFAKRLEAWEERFYKALAHELERLSEARGFTRLVLMGPEEHTKLFLGHLPKRLRERVVAELPSLPHPGASPGEVLKRLEPVLEEVERREEVKLLERLEEAYPKAAFGPEVLARVQEGRVEVWVLPWHLEQEVYLCQDFAFADEAQALAYCESPEKKPLAAVLASLAVGYATKLEFVRGEAENRLLERGGMAALLRW | soluble |
| MGHHHHHHSHMQQQETNLLANLTTNDARDNSKDFQNSKVGAAATSRDEGCNCPIIGEIVISCYWLFEIPPLISE | soluble |
| MLEIKGLRARIVGTNTEVIRGLNLTVADGEVAAIMGQNGAGKSTLSYLLAGRDDYEVIDGDILYNGQSLLEMDPAERAAYGVFLAFQYPMEIPGVATMEFLKVAMNSQRKARGDQELKIPEFIKCVKEISSKLEINMDMLKRPLNVGFSGGEKKRAEILQMALLEPKLCILDETDSGLDIDALKIVADGVNKLRDPKRSFLVITHYQRLLNYIIPDTVHVLYKGRIIKSGDKSLALYLEQNGYADLIREAA | not soluble |
| GGSVKKGRRSRRCGQCPGCQVPEDCGVCTNCLDKPKFGGRNIKKQCCKMRKCQNLQWMPSKAYLQKQAKAVK | soluble |
| MAHHHHHHMAIVGDSLNKRRNYTVCGLVSNPLFQKCAEVAQYVAEEYSDEFYVDIFREMPCEFYSRREQLLNSKKIEDGGMEVIVLVGADGHTGPTNGEGEAMSGDDFLNMMQKATCFRVLNIPPERPDSYENMAHLSWKNYLRERGNTYCWMEISIGEMVHGRVTFELYSRVVPHTCSNFWHLCKGDLSRDADEGEEQVPILSYKNSTFFRTLHGAWVMGGDISGGNGRGGYSIYGRYFPNESYAIPHDRVGVLGMCNDGGDTNASSFYITMKAMQWMNGRYVAFGRVVDGLEVVHAIHAVDVKHNQCPKKVITISDCGVIDLTE | not soluble |
| MSLEELVKKLGDKLNEAEADAKKFGKLIGRITRFESVSLKDNELIGVDIAFEDYLNSDVKKGQYLAIRSITRPVTILGQVRAITRADALSKLGIRELSYPKDPTTIITTTYVELKPIAEIENGKIRPPVSPVDPQSPVFIPNHDLIEKILNIPSRGITIGKIFSGGEETDASVRLDEYTLRHHTLILGTTGSGKTTLLKSMISSEEIDKGTFIFDRQGDFINYLIEKRRGFAVIMPVVEEASRSISLKDHAEKFANWYDCDNILDVKEDGVLEECNGSEVFLIPYSINFYSVLKNFNKITPYFTPKASMYWEAIVNNMFEIIGYDLYELADKKQTFYEDQLSDFLRDRLTPGSLLGKISGFYDLKMVSGSKSKQFSSYDGSKKMLTINMGKAFEEAMKRLDVPYQTKEAILRTLKAYDSYGIFTVPGTVDFKPKDVFSSYSDVVVDLSWVMNRSASIEAVATIAYKLLEDFFNWKDELYKMKETTKLTLVIMDEAHEYFPQTDQENVSKDIVEGLINRIMRLGRVRNIGVVLATHVPEDLNPLVLQLTNTKVVMRNESHVLRRLGLEEYEDFLRHATPGLAIVYSIYFSEVPIKTIQREGHHHHHH | soluble |
| MIPVVYSNLCPVCGGDLESKEIEKHVCFRKKRSLCLFPEDFLLKEFVEFFRKCVGEPRAIQKMWAKRILRKESFAATAPTGVGKTSFGLAMSLFLALKGKRCYVIFPTSLLVIQAAETIRKYAEKAGVGTENLIGYYHGRIPKREKENFMQNLRNFKIVITTTQFLSKHYRELGHFDFIFVDDVDAILKASKNVDKLLHLLGFHYDLKTKSWVGEARGCLMVSTATAKKGKKAELFRQLLNFDIGSSRITVRNVEDVAVNDESISTLSSILEKLGTGGIIYARTGEEAEEIYESLKNKFRIGIVTATKKGDYEKFVEGEIDHLIGTAHYYGTLVRGLDLPERIRFAVFVGCPSFRVTIEDIDSLSPQMVKLLAYLYRNVDEIERLLPAVERHIDEVREILKKVMGKERPQAKDVVVREGEVIFPDLRTYIQGSGRTSRLFAGGLTKGASFLLEDDSELLSAFIERAKLYDIEFKSIDEVDFEKLSRELDESRDRYRRRQEFDLIKPALFIVESPTKARQISRFFGKPSVKVLDGAVVYEIPMQKYVLMVTASIGHVVDLITNRGFHGVLVNGRFVPVYASIKRCRDCGYQFTEDRESCPKCGSENVDNSRSRIEALRKLAHDAEFVIVGTDPDTEGEKIAWDLKNLLSGCGAVKRAEFHEVTRRAILEALESLRDVDENLVKAQVVRRIEDRWIGFVLSQKLWERFNNRNLSAGRAQTLVLGWIIDRFQESRERRKIAIVRDFDLVLEHDEEEFDLTIKLVEEREELRTPLPPYTTETMLSDANRILKFSVKQTMQIAQELFENGLITYHRTDSTRVSDVGQRIAKEYLGDDFVGREWGESGAHECIRPTRPLTRDDVQRLIQEGVLVVEGLRWEHFALYDLIFRRFMASQCRPFKVVVKKYSIEFDGKTAEEERIVRAEGRAYELYRAVWVKNELPTGTFRVKAEVKSVPKVLPFTQSEIIQMMKERGIGRPSTYATIVDRLFMRNYVVEKYGRMIPTKLGIDVFRFLVRRYAKFVSEDRTRDLESRMDAIERGELDYLKALEDMYAEIKSID | soluble |
| VRPHWRDLETLRLAAQRFGDGDLSSRTRIFRRSDIRTLAQHFNQMADRIESLISNQRELTNAVSHELRTPISRLSFELEQLNKQVDAEVRHDLIEDMRADLGELEEMVSELLTYARLEHGNVGSHREIVDAASWLDSVVADVALEAEAAGVTCEISACQVEQIRIEPRFMARAVINLLRNAIRHAHSRVEIALLDQGDSCQIRVNDDGPGIPADARQKIFEPFSRLDDSRDRSTGGFGLGLAIVHRVAQWHGGYAEALETPQGGASFRLTWERPR | not soluble |
| MLRNLKKTLVLDSSVFIQGIDIEGYTTPSVVEEIKDRESKIFLESLISAGKVKIAEPSKESIDRIIQVAKETGEVNELSKADIEVLALAYELKGEIFSDDYNVQNIASLLGLRFRTLKRGIKKVIKWRYVCIGCGRKFSTLPPGGVCPDCGSKVKLIPRKRLEHHHHHH | not soluble |
| AHHHHHHGSELFFITSNDGKVREAKKFLEPLGINVIKKPLEYPEIQADTLEDVVVFGLNWLKDKVDKPFIIEDSGLFIEALNGFPGVYSAYVYKTIGLDGILKLMEGIENRKAYFKSVIGFYDGEIHLFVGEVRGRISNEKRGLHGFGYDPIFVPDGFDKTFAEMSTEEKNSVSHRGKALKEFYRWMKENLKK | soluble |
| MGSDKIHHHHHHMKGIISLIHGGKTFVDQIHSACQDAGIELYVISSNTVDADLLQNMSDKATVLEVIEGTDLNFESVLSFVEKLQQSNKQALACISVWENYRPLMARLNQALGAQDMCPEQVNLLRDKHLLRKVLYDAGLSQVNSRILTQEVFIQIQKNRELAFVKPRQGIASYGAFKLRPSTQWQQITEIAEQIQSDAVFSSSFADEVEFVAEDYISGVEFCFEIIHHDGQCNLIAIHEKLEVGEQNLTTLENVSASPPISLNRKQIEQANLWVSSIFERLELGSGCYHLEAKFDNNQWEVIEINPRIGGSYINESVAHVAGYSLLELWIRSLLRAGCSEYQAFLKVLSPHSEQFFERQQGSYFRVFFAEPNRTISRLNFKLGTPPIHKKLLMKEGQTTPNASRELFMAQALWSWSVSQDSVQTRAQISESLTALEVEYE | not soluble |
| MTQVSIIVPVLNEESTIHSAVSRLCRDFPDCELIVVDGGSTDATAELAALHATVIGSERGRAKQMNEGARHASGGILWFIHADTAIEPEALGQIRSVLADPAVVAGGLTLRFDRRTPALNYLAWTSNARARRLHHIFGDQAMFIRRTAFDELGGFPDLAIMEDLEMSRRLHRRGPLRLLPATSTASSRRLTAHGTWRMIAFMQYLKLLYFAGADPEAIRARYTAGPRLFPKRNPATLEHHHHHH | not soluble |
| GYALTEGEDYLVLDKPIPQEQSGKIEVLEFFGYFCVHCHHFDPLLLKLGKALPSDAYLRTEHVVWQPEMLGLARMAAAVNLSGLKYQANPAVFKAVYEQKIRLENRSVAGKWALSQKGFDGKKLMRAYDSPEAAAAALKMQKLTEQYRIDSTPTVIVGGKYRVIFNNGFDGGVHTIKELVAKVREERKRQTPAVQK | soluble |
| MSLADIYAFPTGESNDGRPVRPQGVPDEVWAAVESVSTMKRIHDVRYREIPVPSTLADYGIGVEFEAGERALGDAFSAGLGSDAEPRIATGWIMMLYAHELRIDWDSNWRCVAFARLPLETAENDSLTPGMYWDDMCDYFDGIEPDSVSGTVTVTQNTAFGSMAGSTSAGCEIRVSWTPLDGTGPDGTMDAGAQVRSWAAFIRSTIRFEEDDASEGHHHHHH | soluble |
| MSLPDTSPDLPAMSPLAVYRQAVEQRGFAPDEAQRRAAEALERCFQALHEAHRHGAIQGVYLWGPVGRGKTWLMDHFYQCLRVPARRQHFHHFMQWVHQRQFELTGTADPLRALARELARDVRVLCFDELFVSDIGDAILLGSLLRIMFEEGVVLVATSNQPPEQLYADGFNRERFLPAIEAIQRHMAVVAVDGGQDHRLHPGRAEQRYWVVEAGQASGFAELFARLSAGEAASTQPIELGHRPLAVHRHSESVLWCSYAQLCEAPLSALDFIGLCDRYRAILMDDLPCLSASQREGRIARGTEDGAQLVEAGDRELPQLSVHDDGVRRFIALVDECYDRKVPLYLEARVPLEALYTEGYLAFAFRRTLSRLREMQLARFGSDSEGGSHHHHHH | soluble |
| MAHHHHHHMLSRLSERCTIATGLEQVLRHYVWSAAWLRDAEPAAAASENIDLSGLMERAGRAAYDVFANLYTSQKHWLILVGSGNNGGDGYVIARHAREAGKIVTVLRMPHSKPLPTEAASAQHAWKAVGGTESTMSPGAPLQLPADVDLIVDGLLGTGICGPPREQYADVIRHINGLPVPRVAIDIPSGLNAETGEAAGACVKADHTATFICLKPGLLTGQAKDYVGQLHYRSLGLEDWMTAPERMRVALCRRVALDDVYEYFGIRRSALAHKGSCGKAILVGGDHGFGGAALMSAEACVTVGAGLTRVLTRPEYAAPLLTRCPEAMVTAVETDTGEQLKQQMLEAFEWASTLAVGPGLGTGAYGQAALTAALRHAELHQDKTLVLDADALNLLAGCLHGREGGAAAGARKHLPVLPNSIITPHPGEAARLLDCRVADVEKDRLAAARRLAAILGGTCLLKGPGTIVHCHSSAKTAIVDAGNAGMASGGMGDVLTGLLAGLAAQRMHDTFDTTCAGALVHGVAADMVAAEDGRGTRGIRATELIHRVPLIVNASGPSPASRQRPSGQ | soluble |
